# Assay results reported in the supplement of paper PMC7125110.
# ± gives the standard error. This sample holds only a part of the variants without activity.
# B1: glmS ribozyme (parent)
# chain: AUAAAAGCGCCAGAACUACAGAAAUGUAGUUGACGAGGAGGAGGUUUAUCGAAUUUUCGGCGGAUGCCUCCAAA
# Legend:
# Details in all cases: with glucosamine-6-phosphate
# glucosamine-6-phosphate [1] = variants of: B1; test: self-cleavage kobs at 40 uM GlcN6P; higher = faster cleavage; RNA array
# Summary of the method: (§1)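 E. coli RNA polymerase transcribed barcoded ribozyme variants in situ on sequenced MiSeq chips, which were tracked via a hybridised Cy3 probe at 37 °C. Tiles were imaged over ~14 h after glucosamine-6-phosphate (40 μM to 10 mM) in HEPES/KCl/Mg(OAc)2 buffer was flowed in. Normalised per-tile medians were fit to one- or two-exponential decays for kobs, and kcat and KM came from weighted Michaelis–Menten fits.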
# glucosamine-6-phosphate [2] = variants of: B1; test: self-cleavage kobs at 160 uM GlcN6P; higher = faster cleavage; RNA array
# Summary of the method: as §1
# glucosamine-6-phosphate [3] = variants of: B1; test: self-cleavage kobs at 640 uM GlcN6P; higher = faster cleavage; RNA array
# Summary of the method: as §1
# glucosamine-6-phosphate [4] = variants of: B1; test: self-cleavage kobs at 2500 uM GlcN6P; higher = faster cleavage; RNA array
# Summary of the method: as §1
# glucosamine-6-phosphate [5] = variants of: B1; test: self-cleavage kobs at 10000 uM GlcN6P; higher = faster cleavage; RNA array
# Summary of the method: as §1
Variant,self-cleavage kobs at 40 uM GlcN6P (glucosamine-6-phosphate [1]),self-cleavage kobs at 160 uM GlcN6P (glucosamine-6-phosphate [2]),self-cleavage kobs at 640 uM GlcN6P (glucosamine-6-phosphate [3]),self-cleavage kobs at 2500 uM GlcN6P (glucosamine-6-phosphate [4]),self-cleavage kobs at 10000 uM GlcN6P (glucosamine-6-phosphate [5])
C10A G37U A42U C67G C68G,7.19e-05 ± 2e-05 s⁻¹,–,–,–,–
C10U G43C,< 1e-05 s⁻¹,< 1e-05 s⁻¹,< 1e-05 s⁻¹,< 1e-05 s⁻¹,< 1e-05 s⁻¹
C11A G32U A42G,< 1e-05 s⁻¹,–,–,–,–
C10A G37C A42C C70A,< 1e-05 s⁻¹,–,–,–,–
C11A C16G A36U G40A U55A U56A,< 1e-05 s⁻¹,–,–,–,< 1e-05 s⁻¹
C11U A48C,< 1e-05 s⁻¹,< 1e-05 s⁻¹,< 1e-05 s⁻¹,< 1e-05 s⁻¹,< 1e-05 s⁻¹
C11U A12U G13U A64C,< 1e-05 s⁻¹,–,–,–,< 1e-05 s⁻¹
C11U A14G A15G,0.000235 ± 5.3e-05 s⁻¹,–,–,–,0.0112 ± 0.0025 s⁻¹
C10U G44U,< 1e-05 s⁻¹,–,< 1e-05 s⁻¹,< 1e-05 s⁻¹,< 1e-05 s⁻¹
C11G U45G,< 1e-05 s⁻¹,< 1e-05 s⁻¹,< 1e-05 s⁻¹,< 1e-05 s⁻¹,< 1e-05 s⁻¹
C11G G37C U55A C68G,< 1e-05 s⁻¹,–,0.000386 ± 0.00018 s⁻¹,–,–
C11G A14G A39U,< 1e-05 s⁻¹,–,–,–,–
C10U C68A C71U,< 1e-05 s⁻¹,–,–,–,–
A12C A39C C67G,< 1e-05 s⁻¹,–,–,–,–
C10A G41U G44U,< 1e-05 s⁻¹,< 1e-05 s⁻¹,< 1e-05 s⁻¹,< 1e-05 s⁻¹,–
C11G U54A,< 1e-05 s⁻¹,–,–,–,–
C11U A12U U65C C68G,< 1e-05 s⁻¹,–,–,–,< 1e-05 s⁻¹
C11A G37C G60A,< 1e-05 s⁻¹,–,–,–,–
C11G A33G G40C,< 1e-05 s⁻¹,–,–,–,< 1e-05 s⁻¹
C11A A15C G43A,< 1e-05 s⁻¹,–,–,–,< 1e-05 s⁻¹
C11G G44A,< 1e-05 s⁻¹,< 1e-05 s⁻¹,< 1e-05 s⁻¹,–,< 1e-05 s⁻¹
C11G G44C,< 1e-05 s⁻¹,< 1e-05 s⁻¹,< 1e-05 s⁻¹,< 1e-05 s⁻¹,–
C11G G44U,< 1e-05 s⁻¹,–,< 1e-05 s⁻¹,–,< 1e-05 s⁻¹
C11U U49C,< 1e-05 s⁻¹,< 1e-05 s⁻¹,< 1e-05 s⁻¹,< 1e-05 s⁻¹,–
C10U G32A A39C U57C C61G C68G,< 1e-05 s⁻¹,–,< 1e-05 s⁻¹,–,< 1e-05 s⁻¹
C10U C67U C70U,< 1e-05 s⁻¹,–,–,–,< 1e-05 s⁻¹

Variant,self-cleavage kobs at 40 uM GlcN6P (glucosamine-6-phosphate [1]),self-cleavage kobs at 160 uM GlcN6P (glucosamine-6-phosphate [2]),self-cleavage kobs at 640 uM GlcN6P (glucosamine-6-phosphate [3]),self-cleavage kobs at 2500 uM GlcN6P (glucosamine-6-phosphate [4]),self-cleavage kobs at 10000 uM GlcN6P (glucosamine-6-phosphate [5])
C11G G38A,< 1e-05 s⁻¹,–,< 1e-05 s⁻¹,< 1e-05 s⁻¹,–
A12C G38A G51A G59U C68U,< 1e-05 s⁻¹,–,–,–,< 1e-05 s⁻¹
C10U A14C C61U,< 1e-05 s⁻¹,–,–,–,< 1e-05 s⁻¹
C11A C34A U47G,< 1e-05 s⁻¹,–,–,< 1e-05 s⁻¹,–
C10U G29U C34A,< 1e-05 s⁻¹,–,–,< 1e-05 s⁻¹,< 1e-05 s⁻¹
C10A U31G A48G C67G,< 1e-05 s⁻¹,–,–,–,< 1e-05 s⁻¹
A12C G38A G60A,< 1e-05 s⁻¹,< 1e-05 s⁻¹,–,–,< 1e-05 s⁻¹
C10A U45G,< 1e-05 s⁻¹,–,< 1e-05 s⁻¹,< 1e-05 s⁻¹,< 1e-05 s⁻¹
C10G C11A A42U,< 1e-05 s⁻¹,–,–,< 1e-05 s⁻¹,< 1e-05 s⁻¹
C10U U45C G63A,< 1e-05 s⁻¹,< 1e-05 s⁻¹,< 1e-05 s⁻¹,–,–
C10U A15U G44U U46G G63U A64G,< 1e-05 s⁻¹,–,–,–,< 1e-05 s⁻¹
C10A G13A U30C G40A,< 1e-05 s⁻¹,–,–,–,–
C10A U45G G63U,< 1e-05 s⁻¹,–,–,–,< 1e-05 s⁻¹
C11A G13C A53U C58G A64U U69A,7.02e-05 ± 2.7e-05 s⁻¹,–,–,–,–
C10U A39U G43C,< 1e-05 s⁻¹,–,–,–,< 1e-05 s⁻¹
C11A G29U G59U,0.000103 ± 2.9e-05 s⁻¹,–,–,–,–
C10U A12C A53C,< 1e-05 s⁻¹,–,–,–,–
C11U G63U,< 1e-05 s⁻¹,–,–,< 1e-05 s⁻¹,< 1e-05 s⁻¹
C11U G63A,< 1e-05 s⁻¹,< 1e-05 s⁻¹,< 1e-05 s⁻¹,< 1e-05 s⁻¹,< 1e-05 s⁻¹
C11A U57A G60U,< 1e-05 s⁻¹,–,–,–,–
C11U G44U,< 1e-05 s⁻¹,< 1e-05 s⁻¹,< 1e-05 s⁻¹,< 1e-05 s⁻¹,–
C10U A39G C71A,< 1e-05 s⁻¹,–,–,–,–
C11G A36G U49A U65C C70U,< 1e-05 s⁻¹,–,–,–,< 1e-05 s⁻¹
C10A G43A U45C,< 1e-05 s⁻¹,–,–,–,–
C10U G37C G66A,< 1e-05 s⁻¹,–,–,–,–
C11G A48U,< 1e-05 s⁻¹,< 1e-05 s⁻¹,< 1e-05 s⁻¹,–,< 1e-05 s⁻¹
